{"source": "patent US6576455B1", "about": "“Structure-based designed herbicide resistant products” (priority 1995, dated 2003)", "molecules": {"B1": {"name": "Maize AHAS: wild type maize AHAS expressed from pAC751 in E. coli and purified, 65 kD (SEQ ID NO:1) (protein)", "chain": "GSAASPAMPMAPPATPLRPWGPTDPRKGADILVESLERCGVRDVFAYPGGASMEIHQALTRSPVIANHLFRHEQGEAFAASGYARSSGRVGVCIATSGPGATNLVSALADALLDSVPMVAITGQVPRRMIGTDAFQETPIVEVTRSITKHNYLVLDVDDIPRVVQEAFFLASSGRPGPVLVDIPKDIQQQMAVPVWDKPMSLPGYIARLPKPPATELLEQVLRLVGESRRPVLYVGGGCARSGEELRRFVELTGIPVTTTLMGLGNFPSDDPLSLRMLGMHGTVYANYAVDKADLLLALGVRFDDRVTGKIEAFASRAKIVHVDIDPAEIGKNKQPHVSICADVKLALQGMNALLEGSTSKKSFDFGSWNDELDQQKREFPLGYKYSNEEIQPQYAIQVLDELTKGEAIIGTGVGQHQMWAAQYYTYKRPRQWLSSAGLGAMGFGLPAAAGASVANPGVTVVDIDGDGSFLMNVQELAMIRIENLPVKVFVLNNQHLGMVVQWEDRFYKANRAHTYLGNPENESEIYPDFVTIAKGFNIPAVRVTKKNEVRAAIKKMLETPGPYLLDIIVPHQEHVLPMIPSGGAFKDMILDGDGRTVY", "modifications": "Zea Mays"}, "B2": {"name": "Met124Ile: Arabidopsis AHAS variant (and gene) with Met124Ile mutation, corresponding to maize Met53Ile; vector pJK002 (protein, UniProt P17597 56-670, looked up, variant M124I)", "Acetolactate synthase, …": "SSSPSSISAVLNTTTNVTTTPSPTKPTKPETFISRFAPDQPRKGADILVEALERQGVETVFAYPGGASIEIHQALTRSSSIRNVLPRHEQGGVFAAEGYARSSGKPGICIATSGPGATNLVSGLADALLDSVPLVAITGQVPRRMIGTDAFQETPIVEVTRSITKHNYLVMDVEDIPRIIEEAFFLATSGRPGPVLVDVPKDIQQQLAIPNWEQAMRLPGYMSRMPKPPEDSHLEQIVRLISESKKPVLYVGGGCLNSSDELGRFVELTGIPVASTLMGLGSYPCDDELSLHMLGMHGTVYANYAVEHSDLLLAFGVRFDDRVTGKLEAFASRAKIVHIDIDSAEIGKNKTPHVSVCGDVKLALQGMNKVLENRAEELKLDFGVWRNELNVQKQKFPLSFKTFGEAIPPQYAIKVLDELTDGKAIISTGVGQHQMWAAQFYNYKKPRQWLSSGGLGAMGFGLPAAIGASVANPDAIVVDIDGDGSFIMNVQELATIRVENLPVKVLLLNNQHLGMVMQWEDRFYKANRAHTFLGDPAQEDEIFPNMLLFAAACGIPAARVTKKADLREAIQTMLDTPGPYLLDVICPHQEHVLPMIPSGGTFNDVITEGDGRIKY"}, "B3": {"name": "Met124His: Arabidopsis AHAS variant (and gene) with Met124His mutation, corresponding to maize Met53His; vector pJK003 (protein, UniProt P17597 56-670, looked up, variant M124H)", "Acetolactate synthase, …": "B2 Acetolactate synthase, … with I69H"}, "B4": {"name": "Arg199Glu: Arabidopsis AHAS variant (and gene) with Arg199Glu mutation, corresponding to maize Arg128Glu; vector pJK004 (protein, UniProt P17597 56-670, looked up, variant R199E)", "Acetolactate synthase, …": "B2 Acetolactate synthase, … with I69M, R144E"}}, "key": {"[1]": {"assay_type": "physicochemical, Zea mays", "procedure": "The fusion protein was digested overnight at room temperature. Digested samples were dialyzed against MTPBS and passed twice through a glutathione-agarose column equilibrated in MTPBS to remove the released glutathione transferase protein. […] The concentrated sample was loaded onto a 1.5×95 cm Sephacryl S-100 gel filtration column equilibrated in gel filtration buffer (50 mM HEPES, 150 mM NaCl, pH 7.0). Two mL fractions were collected at a flow rate of 0.14 mL/min. Enzyme stability was tested by storage of the enzyme at 4° C. in gel filtration buffer with the addition of 0.02% sodium azide and in the presence or absence of 2 mM thiamine pyrophosphate and 100 μM flavin adenine dinucleotide (FAD).\nMaize AHAS expressed and purified from pAC751 as described in Example 3 above is active in the conversion of pyruvate to acetolactate. Full AHAS activity is dependent on the presence of the cofactors FAD and TPP in the assay medium. […] The activity of the purified enzyme with TPP only, or with no cofactors, was less than 1% of the activity detected in the presence of both TPP and FAD. Normally, AHAS present in crude plant extracts is very labile, particularly in the absence of substrate and cofactors."}, "[2]": {"target": "T1, Maize AHAS (Zea mays, UniProt Q41769)", "T1 construct": "residue #2 corresponds to the putative amino terminus of the mature protein, i.e., after removal of a chloroplast targeting peptide; GST (glutathione S-transferase, pGEX-2T) (N, cleaved yes); made in house; host or cells: E. coli (DH5α), pGEX-2T vector pAC751", "T1 sequence (Q41769 40-638)": "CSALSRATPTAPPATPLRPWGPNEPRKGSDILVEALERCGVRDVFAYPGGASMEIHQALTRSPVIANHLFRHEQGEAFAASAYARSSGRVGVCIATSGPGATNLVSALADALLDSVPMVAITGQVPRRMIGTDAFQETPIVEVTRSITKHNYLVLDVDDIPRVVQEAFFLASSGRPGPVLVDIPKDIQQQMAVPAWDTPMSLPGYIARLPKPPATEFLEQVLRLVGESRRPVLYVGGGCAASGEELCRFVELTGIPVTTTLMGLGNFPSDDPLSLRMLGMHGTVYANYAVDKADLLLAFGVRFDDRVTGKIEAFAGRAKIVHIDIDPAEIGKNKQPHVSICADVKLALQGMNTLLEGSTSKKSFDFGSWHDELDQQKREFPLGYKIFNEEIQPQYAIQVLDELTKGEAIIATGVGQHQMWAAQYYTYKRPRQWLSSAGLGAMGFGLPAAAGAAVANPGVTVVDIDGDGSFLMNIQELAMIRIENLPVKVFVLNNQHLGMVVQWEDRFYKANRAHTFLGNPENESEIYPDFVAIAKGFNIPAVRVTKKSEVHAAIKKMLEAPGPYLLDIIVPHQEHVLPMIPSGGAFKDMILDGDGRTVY", "experiment": "Enzymatic activity and cofactor dependence of purified maize AHAS expressed from pAC751", "assay_type": "biochemical", "procedure": "E. coli (DH5α) cells transformed with the pGEX-2T vector containing either the maize wild type AHAS gene (vector designation pAC751), the Arabidopsis Ser653Asn mutant, or the Arabidopsis Ile401Phe mutant were grown overnight in LB broth containing 50 μg/mL ampicillin. The overnight culture of E. coli was diluted 1:10 in 1 L LB, 50 μg/mL ampicillin, and 0.1% v/v antifoam A. The culture was incubated at 37° C. with shaking until the OD600 reached approximately 0.8. Isopropylthiogalactose (IPTG) was added to a final concentration of 1 mM and the culture was incubated for 3 more hours.\nCells were harvested by centrifugation at 8,670×g for 10 minutes in a JA-10 rotor and resuspended in 1/100th of the original culture volume in MTPBS (16 mM Na2HPO4, 4 mM NaH2PO4, 150 mM NaCl, pH 7.3). Triton X-100 and lysozyme were added to a final concentration of 1% v/v and 100 μg/mL, respectively. Cells were incubated at 30° C. for 15 minutes cooled to 4° C. on ice, and were lysed by sonication for 10 seconds at level 7 with a Branson Sonifier Cell Disrupter equipped with a microtip probe. The cell free extract was centrifuged at 35,000×g for 10 min. at 4° C. The supernatant was decanted and the centrifugation step was repeated.\nPurification of expressed fusion proteins was performed as modified from Smith and Johnson (Gene 67:31-40, 1988). […]"}, "[3]": {"test_system": "tobacco plants", "experiment": "Spraying of transformed tobacco plants with imazethapyr", "assay_type": "in vivo, Nicotiana tabacum cv. Wisconsin 38", "details": "twice the field rate (100 g/ha) of imazethapyr", "procedure": "Leaf disc transformation of Nicotiana tabacum cv. Wisconsin 38 was performed as described by Horsch et al. (Science, 227: 1229-1231, 1985) with slight modifications. Leaf discs were cut from plants grown under sterile conditions and co-cultivated upsidedown in Murashige Skoog media (Sigma Chemical Co., St. Louis, Mo.) for 2-3 days at 25° C. in darkness with Agrobacterium tumefaciens strains containing plasmids pJK002, pJK003, or pJK004. The discs were blotted dry and transferred to regeneration Murashige Skoog medium with B5 vitamins containing 1 mg/L benzyladenine and 0.1 mg/l 1-Napthyl Acetic Acid, 100 mg/L kanamycin, and 500 mg/L cefotaxime (all obtained from Sigma).\nKanamycin-resistant tobacco shoots were transferred to medium containing a 0.25 μM imazethapyr."}, "[4]": {"test_system": "Arabidopsis AHAS protein", "details": "no herbicide; for Specific Activity: b134 expresses specific activity as units/mg pure AHAS, 1 unit = 1 μmole acetolactate produced/hour; for % Catalytic Activity as Compared to Wild Type: relative to wild-type AHAS", "procedure": "(a) specific or catalytic activity for conversion of pyruvate to acetolactate (expressed as units/mg pure AHAS, wherein a unit of activity is defined as 1 μmole acetolactate produced/hour), or for condensation of pyruvate and 2-ketobutyrate to form acetohydroxybutyrate (expressed as units/mg pure AHAS, wherein a unit of activity is defined as 1μ mole acetohydroxybutyrate produced/hr.;\n(§1) The enzymatic properties of wild-type and variant AHAS produced in E. coli were measured by a modification of the method of Singh et al. (Anal. Biochem […]:173-179, 1988) as follows:\n(§2) A reaction mixture containing 1× AHAS assay buffer (50 mM HEPES pH 7.0, 100 mM pyruvate, 10 mM MgCl2, 1 mM thiamine pyrophosphate (TPP), and 50 μM flavin adenine dinucleotide (FAD)) was obtained either by dilution of enzyme in 2× assay buffer or by addition of concentrated enzyme to 1× AHAS assay buffer. All assays containing imazethapyr and associated controls contained a final concentration of 5% DMSO due to addition of imazethapyr to assay mixtures as a 50% DMSO solution. Assays were performed in a final volume of 250 μL at 37° C. in microtiter plates. After allowing the reaction to proceed for 60 minutes, acetolactate accumulation was measured […] as described by Singh et al., Anal. Biochem 171:173-179, 1988."}, "[5]": {"test_system": "Arabidopsis AHAS protein", "details": "increasing concentrations of imazethapyr, 5% DMSO; FIGS. 7, 9, 10, 11", "procedure": "as §1, §2"}}, "note": "Substitutions are numbered along the chain they refer to."}
{"molecule": "B1", "values": [{"measurement": "degradation products in SDS-PAGE gels after storage", "setting": "[1]", "result": "no degradation products were visible"}, {"measurement": "catalytic activity after storage", "setting": "[1]; one month at 4° C. in 50 mm HEPES pH 7.0, 150 mM NaCl, 0.02% NaN3, presence or absence of FAD and TPP", "result": "no lose in catalytic activity"}, {"measurement": "AHAS activity when only FAD was added to the assay medium", "setting": "[2]; FAD only, no TPP", "result": "No activity was detected"}, {"measurement": "activity with TPP only, or with no cofactors, relative to activity in the presence of both TPP and FAD", "setting": "[2]; TPP only or no cofactors", "result": "less than 1%"}]}
{"molecule": "B2", "values": [{"measurement": "resistance of transformed tobacco plants to spraying with imazethapyr", "setting": "[3]", "result": "resistant"}, {"measurement": "Specific Activity", "setting": "[4]", "result": 102}, {"measurement": "% Catalytic Activity as Compared to Wild Type", "setting": "[4]", "result": 102, "unit": "%"}, {"measurement": "resistance of enzymatic activity to imazethapyr (PURSUIT)", "setting": "[5]", "result": "significant level of imidazolinone resistance"}]}
{"molecule": "B3", "values": [{"measurement": "Specific Activity", "setting": "[4]", "result": 42.5}, {"measurement": "% Catalytic Activity as Compared to Wild Type", "setting": "[4]", "result": 42.6, "unit": "%"}, {"measurement": "resistance of enzymatic activity to imazethapyr (PURSUIT)", "setting": "[5]", "result": "high degree of resistance"}]}
{"molecule": "B4", "values": [{"measurement": "resistance of transformed tobacco plants to spraying with imazethapyr", "setting": "[3]", "result": "resistant"}, {"measurement": "Specific Activity", "setting": "[4]", "result": 114}, {"measurement": "% Catalytic Activity as Compared to Wild Type", "setting": "[4]", "result": 114, "unit": "%"}, {"measurement": "resistance of enzymatic activity to imazethapyr (PURSUIT)", "setting": "[5]", "result": "improved levels of resistance"}]}
